# Data as given in patent US20090226525.
# pKd: −log10 of the molar value.
# Experiments:
# Assay in all cases: EMSA
# [1] = molecular target: HBV core protein K11 mutant (truncated core, C-terminal 11-lysine tail, E77C) (Hepatitis B virus) (UniProt P03149); conditions: phosphate (P) at end of the sequence; 20 mM NaHCO3 pH 9.5, room temperature, agarose gel
# [2] = molecular target: HBV core protein K7 mutant (truncated core, C-terminal 7-lysine tail, E77C) (Hepatitis B virus) (UniProt P03149); conditions: phosphate (P) at end of the sequence; 20 mM NaHCO3 pH 9.5, room temperature, agarose gel
# [3] = molecular target: HBV core protein K9 mutant (truncated core, C-terminal 9-lysine tail, E77C) (Hepatitis B virus) (UniProt P03149); conditions: phosphate (P) at end of the sequence; 20 mM Tris pH 7.7 (p269 states 10 mM Tris), room temperature, agarose gel
sequence,measurement,setting,value
GGAAAGACUGUUCCAAAAAUUUUCCUUUCUGACAAGGUUUUU / AAAAACCUUGUCAGAAAGGAAAAUUUUUGGAACAGUCUUUCC [siGLO Cyclophilin B siRNA],pKd,[1],7.16
same,pKd,[2],6.43
same,pKd,[3],6.94
